Consider 1 substance from publication PMC6220982.

Experiment [1] addresses Asn3-ISP (intracellular subtilisin protease from Planococcus sp. AW02J18, starting at Asn3) (Planococcus sp. AW02J18). The experiment can be described thus: SEC; pre-calibrated Superdex 200 10/300 GL; 500 µl Asn3-ISP at 0.8 mg/mL; 50 mM Tris-HCl pH 7.5, 150 mM NaCl; without calcium or with 1 mM EDTA (overnight).
Experiment [2] has the same target. The experiment is described as follows: SEC; pre-calibrated Superdex 200 10/300 GL; 500 µl Asn3-ISP at 0.8 mg/mL; 50 mM Tris-HCl pH 7.5, 150 mM NaCl; with 2 mM CaCl2 added immediately before the run.

“And” between values parts separate entries of the source, which are not always exact repeats. Identical values can stand only once.

For “Asn3-ISP (intracellular subtilisin protease from Planococcus sp. AW02J18, starting at Asn3) (enzyme)”, the stoichiometry N (monomers per oligomer) in experiment [1] is 3.3; in experiment [2] it was 3.7 and 2.5.
